From the supplement of paper PMC7877785 come the findings set out here.

± gives the uncertainty stated by the source.

This data set is described as follows: self-splicing fitness, log relative to wild type (ln ratio); higher = more splicing; Tetrahymena group I intron in knt gene, E. coli kanamycin selection, DiMSum; sequences stand for … in CUCUCU…GGAGGGAAAAGUUAUCAGGCAUGCACCUGGUAGCUAGUCUUUAAACCAAUAGAUUGCAUCGGUUUAAAAGGCAAGACCGUCAAAUUGCGGGAAAGGGGUCAACAGCCGUUCAGUACCAAGUCUCAGGGGAAACUUUGAGAUGGCCUUGCAAAGGGUAUGGUAAUAAGCUGACGGACAUGGUCCUAACCACGCAGCCAAGUCCUAAGUCAACAGAUCUUCUGUUGAUAUGGAUGCAGUUCACAGACUAAAUGUCGGUCGGGGAAGAUGUAUUCUUCUCAUAAGAUAUAGUCGGACCUCUCCUUAAUGGGAGCUAGCGGAUGAAGUGAUGCAACACUGGAGCCGCUGGGAACUAAUUUGUAUGCGAAAGUAUAUUGAUUAGUUUUGGAGUACUCGUGGUCG
In outline: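 Colonies from six replicate transformations of E. coli BL21(DE3) were pooled and amplicon-sequenced on an Illumina HiSeq 2500. The library placed an intron with all eight P1ex-region nucleotides randomised inside the knt kanamycin-resistance gene on pET-22b(+), and cells grew overnight at 37°C or 30°C on LB agar with or without 25 μg/mL kanamycin (plus 100 μg/mL carbenicillin, 50 μM IPTG, 0.2% rhamnose). Fitness is the DiMSum error-weighted combination of wild-type-normalised replicate fold changes, kanamycin versus none.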

With AUGCAGCAAUAUUACGUGAA, the “self-splicing fitness (ln)” value is -2.44 ± 0.12 (30 °C) and -0.683 ± 0.13 (37 °C).

As to CUAAAGCAAUAUUACGUAGG, the “self-splicing fitness (ln)” value reads like this: (30 °C) -1.15 ± 0.088; (37 °C) -1.2 ± 0.11.

On to GCACAGCAAUAUUACGGAUA, for which the “self-splicing fitness (ln)” value was -2.49 ± 0.17 (30 °C) and -1.38 ± 0.12 (37 °C).

Take AAGUAGCAAUAUUACGGCCA: the “self-splicing fitness (ln)” value (30 °C) is -0.679 ± 0.095 and the “self-splicing fitness (ln)” value (37 °C) is 0.256 ± 0.11.

In the case of AGGGAGCAAUAUUACGGACU, the “self-splicing fitness (ln)” value was -1.03 ± 0.16 (30 °C) and 0.483 ± 0.22 (37 °C).

As for ACAGAGCAAUAUUACGACUC, the “self-splicing fitness (ln)” value by setting is: (30 °C) -2.94 ± 0.33; (37 °C) -2.47 ± 0.24.

For CAGAAGCAAUAUUACGCUUA, the “self-splicing fitness (ln)” value reads like this: (30 °C) -3.85 ± 0.32; (37 °C) -1.9 ± 0.18.

In the case of UGGAAGCAAUAUUACGCAGG, the “self-splicing fitness (ln)” value is, setting by setting: (30 °C) -3.1 ± 0.42; (37 °C) -1.47 ± 0.4.

For GAGAAGCAAUAUUACGAAAA, the “self-splicing fitness (ln)” value runs as follows: (30 °C) -3.53 ± 0.4; (37 °C) -2.2 ± 0.31.

For the sequence AAACAGCAAUAUUACGAGGG, the “self-splicing fitness (ln)” value (30 °C) is -3.69 ± 0.15 and the “self-splicing fitness (ln)” value (37 °C) is -2.33 ± 0.15.

Consider GCUUAGCAAUAUUACGGUCG, for which the “self-splicing fitness (ln)” value is -1.78 ± 0.12 (30 °C) and -1.41 ± 0.16 (37 °C).

Regarding GCGAAGCAAUAUUACGGCAG, the “self-splicing fitness (ln)” value (30 °C) was -1.93 ± 0.21 and the “self-splicing fitness (ln)” value (37 °C) is -2.92 ± 0.38.

Take ACGUAGCAAUAUUACGCCUC: the “self-splicing fitness (ln)” value by setting is: (30 °C) -2.48 ± 0.38; (37 °C) -2.16 ± 0.41.

Consider AUGAAGCAAUAUUACGGCAA, for which the “self-splicing fitness (ln)” value is, setting by setting: (30 °C) 0.00287 ± 0.12; (37 °C) 0.0978 ± 0.14.

For the sequence CUGAAGCAAUAUUACGGAGA, the “self-splicing fitness (ln)” value is -3.62 ± 0.38 (30 °C) and -1.97 ± 0.32 (37 °C).

ACUGAGCAAUAUUACGCCUA: the “self-splicing fitness (ln)” value runs as follows: (30 °C) -2.23 ± 0.17; (37 °C) -1.42 ± 0.18.

In the case of GAAAAGCAAUAUUACGCUUG, the “self-splicing fitness (ln)” value is -1.72 ± 0.13 (30 °C) and -0.918 ± 0.14 (37 °C).

Consider GGGGAGCAAUAUUACGAUGU, for which the “self-splicing fitness (ln)” value is -1.64 ± 0.25 (30 °C) and -1.55 ± 0.35 (37 °C).

As for CACAAGCAAUAUUACGUAGC, the “self-splicing fitness (ln)” value runs as follows: (30 °C) -4 ± 0.12; (37 °C) -2.59 ± 0.13.

AUAUAGCAAUAUUACGAGCG: the “self-splicing fitness (ln)” value was -2.19 ± 0.17 (30 °C) and -0.66 ± 0.16 (37 °C).

Turning to GCCCAGCAAUAUUACGAUCG, the “self-splicing fitness (ln)” value (30 °C) was -3.49 ± 0.12 and the “self-splicing fitness (ln)” value (37 °C) was -1.44 ± 0.1.

In the case of AGUCAGCAAUAUUACGGACA, the “self-splicing fitness (ln)” value was 0.233 ± 0.078 (30 °C) and 0.157 ± 0.087 (37 °C).

Consider GGGAAGCAAUAUUACGCCGU, for which the “self-splicing fitness (ln)” value runs as follows: (30 °C) -0.357 ± 0.36; (37 °C) -0.232 ± 0.31.

As for AACUAGCAAUAUUACGGAGA, the “self-splicing fitness (ln)” value reads like this: (30 °C) -2.62 ± 0.23; (37 °C) -1.35 ± 0.2.

Turning to AAUUAGCAAUAUUACGGCCC, the “self-splicing fitness (ln)” value reads like this: (30 °C) -0.766 ± 0.18; (37 °C) -0.626 ± 0.29.

As to ACAUAGCAAUAUUACGAGAA, the “self-splicing fitness (ln)” value (30 °C) was -2.62 ± 0.29 and the “self-splicing fitness (ln)” value (37 °C) is -2.35 ± 0.25.

With AUCGAGCAAUAUUACGAGCU, under “30 °C”, the “self-splicing fitness (ln)” value was -2.36 ± 0.4.

With ACAGAGCAAUAUUACGUCGU, the “self-splicing fitness (ln)” value is, setting by setting: (30 °C) -3.11 ± 0.16; (37 °C) -0.947 ± 0.15.

As for UAAUAGCAAUAUUACGGUCC, the “self-splicing fitness (ln)” value (30 °C) was -2.53 ± 0.33.

Consider AAGUAGCAAUAUUACGCAAC, for which the “self-splicing fitness (ln)” value by setting is: (30 °C) -3.33 ± 0.25; (37 °C) -2.87 ± 0.35.

For the sequence AACAAGCAAUAUUACGUCAU, the “self-splicing fitness (ln)” value runs as follows: (30 °C) -2.35 ± 0.075; (37 °C) -1.59 ± 0.082.

On to GCGGAGCAAUAUUACGCGGG, for which the “self-splicing fitness (ln)” value runs as follows: (30 °C) -3.35 ± 0.38; (37 °C) -1.2 ± 0.24.

As for CUGGAGCAAUAUUACGUGGU, the “self-splicing fitness (ln)” value reads like this: (30 °C) -3.53 ± 0.22; (37 °C) -2.4 ± 0.35.

As to UCCUAGCAAUAUUACGACGU, the “self-splicing fitness (ln)” value (30 °C) was -0.558 ± 0.098 and the “self-splicing fitness (ln)” value (37 °C) was -0.499 ± 0.11.

With CUUGAGCAAUAUUACGCCGC, the “self-splicing fitness (ln)” value (30 °C) was -1.08 ± 0.47.

With AUAGAGCAAUAUUACGAUAG, the “self-splicing fitness (ln)” value (30 °C) was -3.43 ± 0.34 and the “self-splicing fitness (ln)” value (37 °C) was -1.62 ± 0.23.

Take CCUCAGCAAUAUUACGGAGG: the “self-splicing fitness (ln)” value (30 °C) is -4.45 ± 0.24 and the “self-splicing fitness (ln)” value (37 °C) is -2.33 ± 0.21.

As to CGUGAGCAAUAUUACGCGCA, the “self-splicing fitness (ln)” value reads like this: (30 °C) -0.962 ± 0.38; (37 °C) -0.382 ± 0.27.

Turning to CAAGAGCAAUAUUACGUUAA, the “self-splicing fitness (ln)” value is -3.49 ± 0.35 (30 °C) and -2.33 ± 0.22 (37 °C).
